± gives the uncertainty stated by the source.
Assay: protein stability index of a GFP-peptide fusion (yeast GPS) (PSI 1-4); higher = more stable; sorted into four equal gates, so the index is relative within each strain
Outline: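 Tiled 17-residue peptides from yeast proteins were fused downstream of GFP on a plasmid that also expresses Cherry, and the pooled library was carried in yeast. Mid-log cultures grown in leucine-free medium were sorted into four equal gates by GFP/Cherry fluorescence ratio. Plasmids from each gate were PCR-amplified and Illumina-sequenced, and reads were assigned to strains by barcodes. Each peptide's protein stability index is the sum, over gates, of the gate's read frequency multiplied by its gate number.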

IQLIKILNSHFDALRSL [YJL041W/NSP1]
protein stability index (doa10∆): 2.54 ± 0.047
protein stability index (pdr5∆): 2.4 ± 0.039
protein stability index (san1∆): 2.95 ± 0.033
protein stability index (ubr1∆): 2.58 ± 0.035

LLEKANNQQRLLLKKLD [SMC3]
protein stability index (doa10∆): 2.31 ± 0.074
protein stability index (pdr5∆): 2.56 ± 0.074
protein stability index (san1∆): 2.28 ± 0.06
protein stability index (ubr1∆): 2.39 ± 0.044

KSAYANTEKDYKMVQEQ [SMC2]
protein stability index (doa10∆): 2.95 ± 0.053
protein stability index (pdr5∆): 3.02 ± 0.066
protein stability index (san1∆): 3.19 ± 0.04
protein stability index (ubr1∆): 3.21 ± 0.049

SKMLDAASSQVSIVKLD [SNF12]
protein stability index (doa10∆): 2.89 ± 0.086
protein stability index (pdr5∆): 2.89 ± 0.11
protein stability index (san1∆): 3.03 ± 0.096
protein stability index (ubr1∆): 2.95 ± 0.091

VRIFTKIESEDDYILSG [SRB4]
protein stability index (ubr1∆): 2.79 ± 0.092

GNGELYMDCLLYDLRAS [SNU114]
protein stability index (doa10∆): 2.03 ± 0.058
protein stability index (pdr5∆): 2.12 ± 0.1
protein stability index (san1∆): 1.91 ± 0.13
protein stability index (ubr1∆): 2.29 ± 0.077

KNEPDYSKAKYPDLQPF [CDC53]
protein stability index (doa10∆): 2.35 ± 0.086
protein stability index (pdr5∆): 2.58 ± 0.089
protein stability index (san1∆): 2.06 ± 0.13
protein stability index (ubr1∆): 2.5 ± 0.085

ETGNFSWASEGISKKTR [RPS8A]
protein stability index (doa10∆): 3.15 ± 0.037
protein stability index (pdr5∆): 3.267 ± 0.028
protein stability index (san1∆): 3.206 ± 0.028
protein stability index (ubr1∆): 3.228 ± 0.025

IAATQDFITGSYLISHK [RPO31]
protein stability index (doa10∆): 3.03 ± 0.083
protein stability index (pdr5∆): 3.14 ± 0.085
protein stability index (san1∆): 2.83 ± 0.093
protein stability index (ubr1∆): 3.13 ± 0.038

LDKVINKELPINHTILG [RPN8]
protein stability index (doa10∆): 2.19 ± 0.077
protein stability index (pdr5∆): 2.27 ± 0.08
protein stability index (san1∆): 1.67 ± 0.13
protein stability index (ubr1∆): 2.4 ± 0.055

SVSMLLQYYILEYMNTA [RRI2]
protein stability index (doa10∆): 2.22 ± 0.079
protein stability index (pdr5∆): 2.34 ± 0.089
protein stability index (san1∆): 2.93 ± 0.086
protein stability index (ubr1∆): 2.19 ± 0.055

PLSRINENENFGYDIPL [YML103C/NUP188]
protein stability index (doa10∆): 3.02 ± 0.12
protein stability index (pdr5∆): 3.14 ± 0.095
protein stability index (san1∆): 3.15 ± 0.064
protein stability index (ubr1∆): 3.08 ± 0.077

RNHKHALHGTAKALAAA [RPL29]
protein stability index (doa10∆): 2.502 ± 0.019
protein stability index (pdr5∆): 2.685 ± 0.017
protein stability index (san1∆): 2.523 ± 0.018
protein stability index (ubr1∆): 2.647 ± 0.014

LAKSKASLTAARTAANS [RPN6]
protein stability index (doa10∆): 2.5 ± 0.18
protein stability index (pdr5∆): 2.69 ± 0.12
protein stability index (san1∆): 2.83 ± 0.097
protein stability index (ubr1∆): 2.7 ± 0.051

GNIFSNIGTPSFNMAQI [SNF5]
protein stability index (doa10∆): 2.58 ± 0.099
protein stability index (pdr5∆): 2.66 ± 0.093
protein stability index (san1∆): 3.05 ± 0.069
protein stability index (ubr1∆): 2.64 ± 0.054

QQKLNTRMQRGHRADVG [REC8]
protein stability index (doa10∆): 2.84 ± 0.16
protein stability index (pdr5∆): 2.85 ± 0.096
protein stability index (san1∆): 2.84 ± 0.15
protein stability index (ubr1∆): 3.3 ± 0.088

FRRDFLLREYDILSQIL [YJL039C/NUP192]
protein stability index (doa10∆): 1.81 ± 0.12
protein stability index (pdr5∆): 2.32 ± 0.1
protein stability index (san1∆): 2.08 ± 0.11
protein stability index (ubr1∆): 2.27 ± 0.06

SNIGNNSINNNNIKNGT [YDL088C/ASM4]
protein stability index (doa10∆): 2.72 ± 0.047
protein stability index (pdr5∆): 2.85 ± 0.057
protein stability index (san1∆): 2.85 ± 0.047
protein stability index (ubr1∆): 2.65 ± 0.042

SSTGNANTSNNLFGATA [YJL041W/NSP1]
protein stability index (doa10∆): 3.44 ± 0.084
protein stability index (pdr5∆): 3.31 ± 0.049
protein stability index (san1∆): 3.3 ± 0.051
protein stability index (ubr1∆): 3.29 ± 0.056

SLLLTNVIITGSTSLIE [ARP7]
protein stability index (doa10∆): 1.54 ± 0.033
protein stability index (pdr5∆): 1.6 ± 0.034
protein stability index (san1∆): 1.66 ± 0.051
protein stability index (ubr1∆): 1.39 ± 0.028

HLILDKLNQKYDIVKFL [GRR1]
protein stability index (doa10∆): 1.83 ± 0.041
protein stability index (pdr5∆): 1.66 ± 0.035
protein stability index (san1∆): 1.3 ± 0.1
protein stability index (ubr1∆): 1.81 ± 0.03

ELLKLLNDEYNYPQLTE [YCS4]
protein stability index (doa10∆): 3.09 ± 0.096
protein stability index (pdr5∆): 3.11 ± 0.098
protein stability index (san1∆): 3.03 ± 0.059
protein stability index (ubr1∆): 3.25 ± 0.06

SDLKGKLSSAENANADL [YIL149C/MLP2]
protein stability index (doa10∆): 3.37 ± 0.15
protein stability index (pdr5∆): 3.35 ± 0.1
protein stability index (san1∆): 3.17 ± 0.12
protein stability index (ubr1∆): 3.17 ± 0.071

EGIEKMGVRTFSQKEMA [FAS2]
protein stability index (doa10∆): 2.96 ± 0.16
protein stability index (pdr5∆): 2.73 ± 0.24
protein stability index (san1∆): 2.88 ± 0.071
protein stability index (ubr1∆): 2.89 ± 0.061

TQTSKEQEIENNGLPMK [ITC1]
protein stability index (doa10∆): 2.9 ± 0.075
protein stability index (pdr5∆): 3.2 ± 0.12
protein stability index (san1∆): 2.87 ± 0.1
protein stability index (ubr1∆): 2.86 ± 0.089

SGCENITDKTIESIVNL [GRR1]
protein stability index (doa10∆): 2.81 ± 0.13
protein stability index (pdr5∆): 2.94 ± 0.099
protein stability index (san1∆): 1.54 ± 0.19
protein stability index (ubr1∆): 2.98 ± 0.078

DDQLKQRRQNIRDLEKL [RPT4]
protein stability index (doa10∆): 2.81 ± 0.23
protein stability index (pdr5∆): 3.11 ± 0.29
protein stability index (san1∆): 3.12 ± 0.13
protein stability index (ubr1∆): 3.15 ± 0.16

AGSTGFSFGQNNNNTNT [YGR119C/NUP57]
protein stability index (doa10∆): 2.52 ± 0.068
protein stability index (pdr5∆): 2.5 ± 0.072
protein stability index (san1∆): 2.32 ± 0.092
protein stability index (ubr1∆): 2.32 ± 0.064

EGLELLGWIHTQTEELK [PRP8]
protein stability index (doa10∆): 2.94 ± 0.1
protein stability index (pdr5∆): 2.65 ± 0.091
protein stability index (san1∆): 3.16 ± 0.053
protein stability index (ubr1∆): 3.29 ± 0.099

QPKGVILYGPPGTGKTL [RPT6]
protein stability index (doa10∆): 3.47 ± 0.15
protein stability index (pdr5∆): 2.91 ± 0.21
protein stability index (san1∆): 3.3 ± 0.15
protein stability index (ubr1∆): 2.95 ± 0.21

TPAAATSPIDIREKVAK [SNF2]
protein stability index (doa10∆): 2.75 ± 0.11
protein stability index (pdr5∆): 2.84 ± 0.11
protein stability index (san1∆): 2.63 ± 0.11
protein stability index (ubr1∆): 3.01 ± 0.1

IAGINKKKGLDENTSGK [PRP28]
protein stability index (doa10∆): 3.48 ± 0.067
protein stability index (pdr5∆): 3.47 ± 0.089
protein stability index (san1∆): 3.44 ± 0.056
protein stability index (ubr1∆): 3.6 ± 0.075

FFPYYVHTIIAGLDEDG [PRE7]
protein stability index (doa10∆): 3.65 ± 0.15
protein stability index (pdr5∆): 3.31 ± 0.12
protein stability index (san1∆): 3.35 ± 0.092
protein stability index (ubr1∆): 3.26 ± 0.095

KTQLGSTMTEPVKQSFI [GAL11]
protein stability index (doa10∆): 2.81 ± 0.051
protein stability index (pdr5∆): 2.9 ± 0.06
protein stability index (san1∆): 2.56 ± 0.053
protein stability index (ubr1∆): 2.85 ± 0.037

GEYSVKLLKGATLYIPK [FAS2]
protein stability index (pdr5∆): 2.87 ± 0.21
protein stability index (san1∆): 2.9 ± 0.12

ATLGIDPPKGILLYGPP [RPT1]
protein stability index (doa10∆): 2.97 ± 0.078
protein stability index (pdr5∆): 2.96 ± 0.077
protein stability index (san1∆): 2.95 ± 0.13
protein stability index (ubr1∆): 2.98 ± 0.047

LSTGRKFERARGRRRSK [RPL18A]
protein stability index (ubr1∆): 3.05 ± 0.1

PEPSHIDQVMMSVSDND [RET1]
protein stability index (doa10∆): 2.43 ± 0.047
protein stability index (pdr5∆): 2.06 ± 0.045
protein stability index (san1∆): 2.43 ± 0.05
protein stability index (ubr1∆): 2.48 ± 0.042

TRSKRLSQVYPTLVRSV [CSN12]
protein stability index (doa10∆): 1.72 ± 0.12
protein stability index (pdr5∆): 2.1 ± 0.22

GKIQENIPFWKHVGFEL [SRP72]
protein stability index (doa10∆): 2.65 ± 0.053
protein stability index (pdr5∆): 2.59 ± 0.055
protein stability index (san1∆): 2.37 ± 0.072
protein stability index (ubr1∆): 2.57 ± 0.035

EKIMILLVPLALLTKRL [CSN12]
protein stability index (doa10∆): 1.95 ± 0.045
protein stability index (pdr5∆): 1.47 ± 0.04
protein stability index (san1∆): 1.33 ± 0.069
protein stability index (ubr1∆): 1.3 ± 0.03

PPQAGDRSLADDYDYVM [RPB8]
protein stability index (doa10∆): 3.23 ± 0.11
protein stability index (pdr5∆): 2.99 ± 0.11
protein stability index (san1∆): 3.33 ± 0.084
protein stability index (ubr1∆): 3 ± 0.09

VPKEGLFYFDSSFRPCP [BRR2]
protein stability index (doa10∆): 3.17 ± 0.068
protein stability index (pdr5∆): 3.28 ± 0.058
protein stability index (san1∆): 3.38 ± 0.046
protein stability index (ubr1∆): 3.14 ± 0.039

LITPAVRNTAPNIRELG [YCG1]
protein stability index (doa10∆): 2.57 ± 0.18
protein stability index (pdr5∆): 2.76 ± 0.15
protein stability index (san1∆): 2.68 ± 0.28
protein stability index (ubr1∆): 3.09 ± 0.093

VFLLTTRAGGLGINLVT [ISW2]
protein stability index (doa10∆): 1.69 ± 0.076
protein stability index (pdr5∆): 1.7 ± 0.063
protein stability index (san1∆): 1.56 ± 0.13
protein stability index (ubr1∆): 1.4 ± 0.13

IRVTNSFALPFEEDEKN [RPN8]
protein stability index (doa10∆): 2.67 ± 0.062
protein stability index (pdr5∆): 2.48 ± 0.046
protein stability index (san1∆): 3.05 ± 0.044
protein stability index (ubr1∆): 3.15 ± 0.043

KVSYAVKKPQKSKTSTG [SNM1]
protein stability index (doa10∆): 2.85 ± 0.1
protein stability index (pdr5∆): 3.15 ± 0.13
protein stability index (san1∆): 2.66 ± 0.12
protein stability index (ubr1∆): 3.24 ± 0.079

ERKLKFSNRFLPVASPF [FAS1]
protein stability index (doa10∆): 3.02 ± 0.12
protein stability index (pdr5∆): 3.16 ± 0.11
protein stability index (san1∆): 2.91 ± 0.094
protein stability index (ubr1∆): 2.85 ± 0.099

VKQYNKKWPQFYAAVQK [SIN4]
protein stability index (doa10∆): 1.49 ± 0.15
protein stability index (pdr5∆): 1.93 ± 0.1
protein stability index (san1∆): 1.55 ± 0.1
protein stability index (ubr1∆): 1.68 ± 0.047

KTKFQYKFLDQNSDAST [YIL149C/MLP2]
protein stability index (doa10∆): 3.08 ± 0.1
protein stability index (pdr5∆): 3.01 ± 0.096
protein stability index (san1∆): 2.94 ± 0.078
protein stability index (ubr1∆): 3.06 ± 0.08

SFQKKSNDKVVEWINPS [ISW2]
protein stability index (doa10∆): 3.12 ± 0.069
protein stability index (pdr5∆): 3.39 ± 0.072
protein stability index (san1∆): 3.1 ± 0.12
protein stability index (ubr1∆): 3.19 ± 0.088

RKTWKRQNTLSLWRYRK [RPL15A]
protein stability index (doa10∆): 3.45 ± 0.083
protein stability index (pdr5∆): 3.1 ± 0.074
protein stability index (san1∆): 3.3 ± 0.052
protein stability index (ubr1∆): 3.36 ± 0.046

PFNKPNIETGENHNGQS [SWI3]
protein stability index (doa10∆): 3.3 ± 0.14
protein stability index (pdr5∆): 3.16 ± 0.12
protein stability index (san1∆): 3.22 ± 0.13
protein stability index (ubr1∆): 2.78 ± 0.13

From the supplement of paper PMC9732359
